# Data as given in paper PMC9396398, “Crystal structure of Ankyrin-G in complex with a fragment of Neurofascin reveals binding mechanisms required for integrity of the axon initial segment” (The Journal of Biological Chemistry, 2022).
# B1: AnkG ANK repeats (residues 38-855, R1-24) [not stated] / Nfasc ankyrin-binding domain (ABD, residues 1187-1214) [not stated] (parent)
# chain 1: SDDSLVDYGEGGEGQFNEDGSFIGQYTV
# chain 2: KSDANASYLRAARAGHLEKALDYIKNGVDVNICNQNGLNALHLASKEGHVEVVSELLQREANVDAATKKGNTALHIASLAGQAEVVKVLVTNGANVNAQSQNGFTPLYMAAQENHLEVVRFLLDNGASQSLATEDGFTPLAVALQQGHDQVVSLLLENDTKGKVRLPALHIAARKDDTKAAALLLQNDTNADIESKMVVNRATESGFTPLHIAAHYGNINVATLLLNRAAAVDFTARNDITPLHVASKRGNANMVKLLLDRGAKIDAKTRDGLTPLHCGARSGHEQVVEMLLDRAAPILSKTKNGLSPLHMATQGDHLNCVQLLLQHNVPVDDVTNDYLTALHVAAHCGHYKVAKVLLDKKANPNAKALNGFTPLHIACKKNRIRVMELLLKHGASIQAVTESGLTPIHVAAFMGHVNIVSQLMHHGASPNTTNVRGETALHMAARSGQAEVVRYLVQDGAQVEAKAKDDQTPLHISARLGKADIVQQLLQQGASPNAATTSGYTPLHLSAREGHEDVAAFLLDHGASLSITTKKGFTPLHVAAKYGKLEVASLLLQKSASPDAAGKSGLTPLHVAAHYDNQKVALLLLDQGASPHAAAKNGYTPLHIAAKKNQMDIATSLLEYGADANAVTRQGIASVHLAAQEGHVDMVSLLLSRNANVNLSNKSGLTPLHLAAQEDRVNVAEVLVNQGAHVDAQTKMGYTPLHVGCHYGNIKIVNFLLQHSAKVNAKTKNGYTPLHQAAQQGHTHIINVLLQNNASPNELTVNGNTALAIARRLGYISVVDTLKVVTEEIMTTTTITEKHKMNVPETMNEVLDMS
# B2: Nfasc 1198 to 1214 WT [not stated] / AnkG ANK repeats (residues 38-855, R1-24) [not stated] (parent)
# chain 1: GEGQFNEDGSFIGQYTV
# chain 2: B1 chain 2
# Variants of: B1
# Assay: ITC
# Settings: with Nfasc ankyrin-binding domain (ABD, residues 1187-1214); parent: 1
row,Variant,ratio to parent
1,chain 2 I240Q L273Q,14
2,chain 2 T302A N304A,11
3,chain 2 R281A Q314A,3

# Now from value to variant:
row,ratio to parent,Variant
1,8,chain 2 H347A
2,8,chain 2 M311Q
3,6,chain 2 V245Q

# Variants of: B2
# Assay: ITC
# Settings: with AnkG ANK repeats (residues 38-855, R1-24); parent: 1
row,Variant,ratio to parent
1,chain 1 GEGQFNEDGSQIGQYTV [chain 1 F11Q],4
2,chain 1 GEGQFNEDGAFIGQYTV [chain 1 S10A],4
3,chain 1 GEGQFNEAGSFIGQYTV [chain 1 D8A],4
4,chain 1 GEGQFNEKGSFIGQYTV [chain 1 D8K],23

# More lines, now with the values ahead:
row,ratio to parent,Variant
1,1,chain 1 GEGQFAEDGSFIGQYTV [chain 1 N6A]
2,3,chain 1 GEGQFNEDGSFQGQYTV [chain 1 I12Q]
3,1,chain 1 GEGQFNEDGSFIGQYAV [chain 1 T16A]
